Reference: article PMC6550527, “Evolution of Superinfection Immunity in Cluster A Mycobacteriophages”

T1: RepTrixie immunity repressor (Mycobacteriophage Trixie, UniProt G1JV33 1-192)
T1 sequence: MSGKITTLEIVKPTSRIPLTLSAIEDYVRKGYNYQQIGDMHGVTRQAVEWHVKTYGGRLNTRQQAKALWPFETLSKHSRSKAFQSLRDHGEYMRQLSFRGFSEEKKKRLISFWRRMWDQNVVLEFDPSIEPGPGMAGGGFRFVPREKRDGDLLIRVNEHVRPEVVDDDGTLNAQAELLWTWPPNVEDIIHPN

B1: RedRock stoperator 30-bp (dsDNA)
DNA 1: TAAGGCGAACTTGACATCCACCGGGTTGGG
DNA 2: CCCAACCCGGTGGATGTCAAGTTCGCCTTA
B2: Trixie stoperator 30-bp (dsDNA)
DNA 1: TGAGCAGTACTTGACATTCACCAGGTTGGG
DNA 2: CCCAACCTGGTGAATGTCAAGTACTGCTCA

Target: T1, RepTrixie immunity repressor
Assay: EMSA; EMSA on 8% polyacrylamide gel, serially diluted Rep with 5'-32P 30-bp dsDNA; binding buffer and temperature not given (ref. 54); protein storage buffer 50 mM Tris pH 8.0, 150 mM NaCl, 0.1 mM EDTA, 0.1 mM DTT, 50% glycerol
Settings: protein: recombinant; chain copies: 2; label: 5' 32P; blunt

Binder | Kd
B1 | ~6.48 nM
B2 | ~6.48 nM
